Measured values: patent US20210261667A1 (SHANGHAI NOVAMAB BIOPHARMACEUTICALS, published 2021)

Assays:
Experiment in all cases: ELISA on coated antigen, A405 nm
PD-L1 (mouse) = target: T1, PD-L1 (mouse) (mouse, UniProt Q9EP73 19-238, limits assumed)
T1 construct: also called mouse PD-L1; murine PD-L1

human PD-L2 = target: T2, human PD-L2 (human, UniProt Q9BQ51 20-220, limits assumed)
T2 sequence (looked up): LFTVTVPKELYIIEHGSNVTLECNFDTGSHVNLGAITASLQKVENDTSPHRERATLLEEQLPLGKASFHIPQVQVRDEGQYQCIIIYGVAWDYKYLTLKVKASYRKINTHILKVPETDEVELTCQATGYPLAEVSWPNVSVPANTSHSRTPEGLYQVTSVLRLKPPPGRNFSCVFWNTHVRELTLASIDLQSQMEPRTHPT

human B7H3 = target: T3, human B7H3 (human, UniProt Q5ZPR3-2 29-245, limits assumed)
T3 sequence (looked up): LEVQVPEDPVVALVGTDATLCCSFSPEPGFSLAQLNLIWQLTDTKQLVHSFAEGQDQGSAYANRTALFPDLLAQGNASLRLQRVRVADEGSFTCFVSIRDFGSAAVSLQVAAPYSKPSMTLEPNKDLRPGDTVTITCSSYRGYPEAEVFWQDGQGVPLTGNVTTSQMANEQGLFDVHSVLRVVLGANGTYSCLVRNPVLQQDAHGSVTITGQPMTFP

B7H4 = target: T4, B7H4 (human, UniProt Q7Z7D3 29-258, limits assumed)
T4 sequence (looked up): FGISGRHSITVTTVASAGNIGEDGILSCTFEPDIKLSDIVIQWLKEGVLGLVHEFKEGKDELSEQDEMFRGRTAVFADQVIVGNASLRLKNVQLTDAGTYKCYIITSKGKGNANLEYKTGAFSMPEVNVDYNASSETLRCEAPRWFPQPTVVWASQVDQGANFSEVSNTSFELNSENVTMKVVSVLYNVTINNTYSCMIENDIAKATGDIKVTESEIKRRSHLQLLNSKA

Measured: binding result

T1 sequence (Q9EP73 19-238 limits assumed): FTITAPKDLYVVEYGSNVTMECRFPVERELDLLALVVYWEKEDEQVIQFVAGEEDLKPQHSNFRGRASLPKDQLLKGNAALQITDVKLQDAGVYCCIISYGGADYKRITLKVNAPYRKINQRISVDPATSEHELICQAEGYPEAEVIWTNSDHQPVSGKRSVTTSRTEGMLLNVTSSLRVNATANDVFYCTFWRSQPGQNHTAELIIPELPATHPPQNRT

B1: bivalent anti-PD-L1 single-domain antibody before humanization (Fc fusion)
chain: QVQLQESGGGSVQAGGSLRLSCTASGYNLSPSCMGWFRQAPGKEREGVAFTDADGSTRYADSVKARFTISRDNAENTLYLQMNSLKPEDTAMYYCAADFFSYCSVVFRASARDKYRGQGTQVTVSS
notes: also called bivalent PD-L1 single-domain antibody before humanization; bivalent single-domain antibody before humanization; not shown: IgG1 Fc of vector pFUSE-IgG1
no binding: PD-L1 (mouse) | human PD-L2 | human B7H3 | B7H4
